# The RNAGym collection of RNA variant scans (doi:10.1073/pnas.2313332121)
# B1: TPR t1 (parent)
# chain: GACCAAUCUGCCCUCAGAGCUCGAGAACAUCUUCGGAUGCAGAGGAGGCAGGCUUCGGUGGCGCGAUAGCGCCAACGUCCUCAACCUCCAAUGCAUCCCACCACAUGAUGAUGCCUGAAGAGCCUUGGUUUUUUG
# Variants of: B1
# Assay: polymerase ribozyme fitness, log enrichment relative to wild type (log ratio); higher = more active; in vitro selection for triplet polymerase activity
# In short: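 Streptavidin-bead capture of gel-excised extended constructs, followed by RT-PCR, closed a single triplicate in vitro selection round. That round began by annealing PCR-built, transcribed mutant libraries of each subunit of a heterodimeric triplet polymerase ribozyme with a biotinylated primer, the partner subunit and triplets, then incubating them frozen at −7 °C. After Illumina sequencing of inputs and outputs, genotypes needed ≥10 input reads and ≥1 read per output. Fitness is the base-2 logarithm of genotype enrichment over wild-type enrichment, using inverse-variance-weighted replicate averages.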
row,Variant,polymerase ribozyme fitness (log ratio)
1,A18U U81A,-3.77
2,A18C G45A C53U G113A,-3.09
3,A18U A24C A27U C40U G63C C89G U116A A121G,-5.65
4,A18G C20A C64A A111G U112A,-6.09
5,A18U G48A C49A C85G U133A,-3.22
6,A18C U87G U132A,-2.91
7,A18U C72G,-2.48
8,G19U A121U,0.0875
9,G19A G48A A91G,-3.87
10,A18U G60A C72U G122A U130G,-3.74
11,A18C A29G G61A,-2.27
12,G19U G122U C123A U129A,-4.23
13,A18C G63A U92G U112C G117A,-4.55
14,G17C G48A C80U A83C A95G C123G,-6.14
15,A18C G45U,-3.69
16,G19C A24G A26U C34U A43C G61U C123G,-7.57
17,A18U C104A,-4.32
18,A18U A43U,-1
19,G17U U78A,-2.93
20,A18C A27G A43U G44U G61A,-4.83
21,A18U C62G A121U,-2.71
22,A18U U55G C56G,-4.5
23,A18C G113U,-4.82
24,C20A A27G C40G U55C G71C,-4.12

row,Variant,polymerase ribozyme fitness (log ratio)
1,G17U C89G C104U,-2.94
2,G17C U54G C94A U112G,-6.12
3,A18C A41G C101G,-5.9
4,A18C U32C A46U A90U C114U,-3.04
5,A18U A41C C88U U92C C104U A111C U125G U132C,-4.68
6,A18U G42U A74G,-1.91
7,C20A G39C,-3.59
8,A18U A43U U59G G113A U125C,-2.05
9,G19A G58C G107A C114U,-3.12
10,A18U C98U A111C,-4.18
11,G17U G48A A50U G60A,-3.1
12,G19U G71A A118G,-6.34
13,A18C U92G A121G,-0.659
14,A18U G48U C64U C88U,-2.9
15,A18C U32C G120C,-0.763
16,G19U G61A C82G C124A,-2.1
17,A18C G110A,-3.98
18,A18C G39C A41U C123U,-2.25
19,G19A C20A C62U,-4.22
20,A18C G39C A41U G60C C123U,-4.26
21,A18G G127U,-4.06
22,C20A G61U G63A C72U U92C C99G C101A C123U,-6.1
23,A18G G19A C88U A90G,-1.41
24,G17C C34U G42U C70A C123A,-6.07

row,Variant,polymerase ribozyme fitness (log ratio)
1,C20A G47U C72A A111C,-3.96
2,A18G A68G U116G C123U,-5.7
3,A18C G63A U78G,-5.52
4,C20A C86G C114U C115U,-5.24
5,C20A G45C G57C C73G U106C U130G,-4.17
6,G19C G61A U81G A84G A91G A111G,-4.6
7,A18C C72U U92G A121G,-0.934
8,G17C U54G C124U,-2.64
9,C20A C124A,-0.989
10,G17U A46C C62U U112A C115A U132G U134A,0.56
11,A18U G39U C104U U112A,-1.88
12,G17U A27U C40A C64A C85A G117C G127A U129A,-6.49
13,G17U C31U C64G G93U C123A U130A,-5.64
14,A18U C20A C97G U109A U116A,-5.44
15,A18C A118U,-0.81
16,G19U G45U G60U A119U,-5.1
17,G17U U55A G77C C86G C124U,-3.47
18,A18G C20A C79U G117C,-3.24
19,G19U C64U C124U,-2.27
20,G19A A50U G113C,-2.01
21,G19U U87A,-3.34
22,C20A G36U,-2.98
23,A18U C88U,-2.25
24,G17U C115G,-0.423

row,Variant,polymerase ribozyme fitness (log ratio)
1,A18G G117C,-3.04
2,A18C G135U,-3.23
3,A18C C56G U59A A100U A111G G127C,-3.88
4,G19U U55G C70U U87G A95C U112C C114A,-0.702
5,G19U G107A G120A U125A,-7.29
6,A18U C85G,-3.16
7,A18C G39U C49U G120C,-4.35
8,G19C C20U C31G C89U U109C C123U,-7.81
9,A18U C72G C115U G128A,-4.57
10,G17U A121G,0.688
11,C20A A74U,-3.01
12,A18G G69A C88G G113C,-5.21
13,C20A G57C C62U,-1.88
14,A18U G60U U92G,-3.05
15,A18U A41G U106A C124G,-1.51
16,A18C C115G A119G,1.41
17,G17U A18C G57C,-2.66
18,G19A C20G U106C G117A,-6.46
19,C20A U32A,-3.55
20,G17U U55A,-2.43
21,G17U A27U G42A A43U C85U C124A U133A,-5.61
22,G19A A83G C114G G122C,-4.41
23,A18U A29U U54G C89G C114G,-3.41
24,A18G A121U,-1.13

row,Variant,polymerase ribozyme fitness (log ratio)
1,C20A C22G G113A U132A,-4.93
2,G17C A75G C101U,-5.29
3,G19U C56A G113C,-3.24
4,A18U C22G G58U U59G U87G,-4.24
5,G19A C73G G77U U112A G128A,-2.41
6,A18C C20U A84C U96C G117U G127A,-5.53
7,C20A C53U U87A,-3.21
8,C20A G69U,-1.94
9,C20A G69A,-5.6
10,G19A C20U U55G G57U C99A G113U,-6.19
11,G19C G42C C97U C115A A119G U129A,-5.99
12,G19A C70U C76G U81C,-4.57
13,C20A G42U,-4
14,G19U G61A,-3.31
15,G19A A43U,-2.7
16,C20A G63A,-3.49
17,C20A G42C G48U G122U,-4.09
18,A18C G58U G69C C89U U106A G110U,-4.7
19,G19U C49U C53U G60U C123U,-5.84
20,G19U A43U G122A C124A,-2.23
21,A18C U32C A37U A50U G60A A83U,-4.99
22,G17U A95G U131A,-2.77
23,A18C U32C A37U A50U G60A G113A,-5.4
24,G19A G44U C124A,-1.74

row,Variant,polymerase ribozyme fitness (log ratio)
1,A18U G25A C34G C53U G61A A100U,-8.02
2,G19C C53G C62U C86U,-2.88
3,C20A G63A C102G G113C C115A G117C,-8.43
4,G17U A43G G57U,-4.19
5,C20A A91C,-3.55
6,G17U U38A G61U U125A,-3.94
7,A18C C49A U78G C114U,-4.02
8,G17C U21A G39A U112C C115A,-1.1
9,G19C C31G C72G G110U U131A,-7.2
10,A18G G58A C79G A118G,-7.2
11,A18G G57U G69A C85U G120U,-7.29
12,A18U A46U,-3.64
13,G17C C49G C62A,-7.71
14,A18G U32A C76U C124G,-2.81
15,A18C C104U C123G,0.269
16,G19A G51U G60A C124U,-5.85
17,G19A C94G,-3.41
18,A18G G36C G45U U112A,-2.4
19,A18C G42U U54C C82G,-2.51
20,G17U G48U C70U U78C U87G U112A,-4.19
21,G17U G52C A74U G77U C123U,-2.34
22,C20A G113C,-4.5
23,C20A A50U U126C,-4.92
24,A18G U78A C86A C97A C102U U109A G113C,-6.86

row,Variant,polymerase ribozyme fitness (log ratio)
1,A18C U109A,-5.77
2,A18G A43U G71U U87C,-4.47
3,G17U G45U G61U U81A,-3.74
4,C20A G110A,-4.21
5,G19A C102A,-5.35
6,C20A C49G G93A,-3.77
7,G17U C49A G61A,-2.67
8,C20A C31U G44C A68C G113C U116C G135C,-5.66
9,G19U,-2.52
10,G19C,-1.91
11,G19A,-2.28
12,G19C G58C A75U C82G,-3.28
13,G17U C20A C49U,-5.73
14,C20A G127A,-3.23
15,G19U G69C,-4.45
16,G19U G69A,-3.8
17,G19A C53A U125G,-3.26
18,A18C A50C G60A A84G U92A,-6.2
19,A18C C79G A90U G113A,-4.1
20,G19A C40U C53A G58C G93U,-4.4
21,G19A U106A,-2.97
22,A18U C72U C97U,-3.15
23,G17U U21A C62G A75C C124U,-4.5
